The record followed here is article PMC4593227, “Biochemical effects of mutations in the gene encoding the alpha subunit of eukaryotic initiation factor (eIF) 2B associated with Vanishing White Matter disease” (BMC Medical Genetics, 2015).

Experiment [1] concerns the target T1, His6-myc-tagged Val183Phe eIF2Bα (human, UniProt Q14232 1-305, Val183Phe).
T1 sequence: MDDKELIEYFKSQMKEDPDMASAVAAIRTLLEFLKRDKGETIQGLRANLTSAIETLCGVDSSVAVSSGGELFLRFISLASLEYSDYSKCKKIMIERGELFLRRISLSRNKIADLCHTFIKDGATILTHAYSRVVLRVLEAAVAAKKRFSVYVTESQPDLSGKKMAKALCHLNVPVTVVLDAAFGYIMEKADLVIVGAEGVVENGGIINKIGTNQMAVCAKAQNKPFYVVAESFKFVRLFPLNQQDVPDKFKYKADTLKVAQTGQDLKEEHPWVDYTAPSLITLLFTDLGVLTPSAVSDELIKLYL
Briefly: cell-based or functional assay.

In experiment [2] the target is T1, His6-myc-tagged Val183Phe eIF2Bα. Nature of the experiment: pull-down; His6-myc-eIF2Bα (WT or mutant) co-expressed with myc-tagged eIF2B subunits in HEK293; ~200 μg lysate on Ni2+-NTA agarose, 1 h at 4 °C, lysis buffer (20 mM Hepes-KOH pH 7.6, 50 mM KCl, 0.5 % Triton X-100) with 20 mM imidazole; bound material blotted for myc tag, total and phospho-eIF2α. Conditions: partners not purified.

Experiment [3] addresses T2, His6-myc-tagged Tyr275Cys eIF2Bα (human, UniProt Q14232 1-305, Tyr275Cys).
T2 construct: eIF2Bα encoded by EIF2B1 with the VWM patient mutation Tyr275Cys; residue numbers start with the first methionine of GenBank AAI03764; also called p.Tyr275Cys; source: HEK293, transfected (calcium phosphate), in lysate
T2 sequence: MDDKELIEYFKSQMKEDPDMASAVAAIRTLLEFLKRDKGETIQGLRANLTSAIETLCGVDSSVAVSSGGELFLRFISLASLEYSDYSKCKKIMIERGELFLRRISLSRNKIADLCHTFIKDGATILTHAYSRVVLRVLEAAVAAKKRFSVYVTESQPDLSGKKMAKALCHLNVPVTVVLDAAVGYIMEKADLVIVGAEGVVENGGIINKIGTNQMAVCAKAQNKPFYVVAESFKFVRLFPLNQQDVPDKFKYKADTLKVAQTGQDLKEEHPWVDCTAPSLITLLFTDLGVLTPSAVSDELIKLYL
The description is as above. To be noted: partners not purified.

B1: myc-tagged eIF2Bγ (natural protein, UniProt Q9NR50 1-452, looked up)
chain: MEFQAVVMAVGGGSRMTDLTSSIPKPLLPVGNKPLIWYPLNLLERVGFEEVIVVTTRDVQKALCAEFKMKMKPDIVCIPDDADMGTADSLRYIYPKLKTDVLVLSCDLITDVALHEVVDLFRAYDASLAMLMRKGQDSIEPVPGQKGKKKAVEQRDFIGVDSTGKRLLFMANEADLDEELVIKGSILQKHPRIRFHTGLVDAHLYCLKKYIVDFLMENGSITSIRSELIPYLVRKQFSSASSQQGQEEKEEDLKKKELKSLDIYSFIKEANTLNLAPYDACWNACRGDRWEDLSRSQVRCYVHIMKEGLCSRVSTLGLYMEANRQVPKLLSALCPEEPPVHSSAQIVSKHLVGVDSLIGPETQIGEKSSIKRSVIGSSCLIKDRVTITNCLLMNSVTVEEGSNIQGSVICNNAVIEKGADIKDCLIGSGQRIEAKAKRVNEVIVGNDQLMEI
notes: eIF2Bγ, gamma subunit of eukaryotic initiation factor 2B; one of 'the other subunits of the eIF2B complex'; source: HEK293, transfected (calcium phosphate), in lysate
On to B1, for which the “decrease in eIF2B GEF activity of complexes containing Val183Phe eIF2Bα, relative to WT (100 %)” value in experiment [1] is about 30%. The “reduction in binding relative to WT” value in experiment [2] and in experiment [3] was about 50% in each case.

B2: myc-tagged eIF2Bβ (natural protein, UniProt P49770 1-351, looked up)
chain: MPGSAAKGSELSERIESFVETLKRGGGPRSSEEMARETLGLLRQIITDHRWSNAGELMELIRREGRRMTAAQPSETTVGNMVRRVLKIIREEYGRLHGRSDESDQQESLHKLLTSGGLNEDFSFHYAQLQSNIIEAINELLVELEGTMENIAAQALEHIHSNEVIMTIGFSRTVEAFLKEAARKRKFHVIVAECAPFCQGHEMAVNLSKAGIETTVMTDAAIFAVMSRVNKVIIGTKTILANGALRAVTGTHTLALAAKHHSTPLIVCAPMFKLSPQFPNEEDSFHKFVAPEEVLPFTEGDILEKVSVHCPVFDYVPPELITLFISNIGGNAPSYIYRLMSELYHPDDHVL
notes: eIF2Bβ, beta subunit of eukaryotic initiation factor 2B; one of 'the other subunits of the eIF2B complex'; source: HEK293, transfected (calcium phosphate), in lysate
Regarding B2, the “decrease in eIF2B GEF activity of complexes containing Val183Phe eIF2Bα, relative to WT (100 %)” value in experiment [1] was about 30%. For the same molecule, the “reduction in binding relative to WT” value in experiment [2] and in experiment [3] was about 50% throughout.
